From patent publication US20190127438A1 (AFFIRIS, published 2019) come the findings set out here.

A word on the Kd: it is a measure of binding affinity in units of concentration. Read a high Kd as lower affinity. For orientation: koff means a measure of how fast the partners let go of each other. Read a low koff as a long-lived complex. In general, kon refers to the rate constant with which the complex forms. By EC50 is commonly meant the concentration that produces a half-maximal response.

Experiment [1] has as its target T1, human IgE (NBS-00911-0-100) (human, UniProt P01854-1 1-428).
T1 construct: Bought reagent; also called soluble IgE
Nature of the experiment: SPR (Biacore 2000, 25 °C), adsorber captured by anti-Tag mAB, IgE 0.5-64 nM as analyte, 1:1 model. As to the method:
The surface of a Streptavidine (SA) sensor chip (GE Healthcare Biacore, Cat. Nr. BR-1000-32) was prepared by three injections with 20 μl of 50 mM NaOH following a 200 μl injection of the biotinylated anti-Tag-mAB (Abcam ab10241) diluted to 2 μg/ml in HBS-EP (0.01 M HEPES, 0.15 M NaCl, 3 mM EDTA, 0.005% (v/v) surfactant P20 (pH 7.4) (GE Healthcare Cat. Nr. BR-1001-88) resulting in an immobilization level of ˜2500 RU for capturing on flow cell 4. Free SA-binding sites were saturated by two consecutive 100 μl injections of 1 mM D-Biotin (Sigma #47868). Flow cell 3 was saturated with free D-Biotin and served as reference cell. The capturing level of FceRIa variants and of the ScFv12 required to obtain a maximal response of 100 RU of IgE binding was calculated to be 75 RU and 80 RU, respectively. Therefore FceRIa, A43-FceRIa and scFv12 were diluted in HBS-EP and injected into flow cell 3 and 4 (30 μl/min) until the immobilization level of 90 RU was reached. After a stabilization time of 10 min with injection of running buffer, the final capturing level of 75 and 80 RU respectively were obtained. Finally the individual interactions of FceRIa, A43-FceRIa and scFv12 with IgE (NBS-00911-0-100) diluted in HBS-EP running buffer at 2-fold increasing concentrations (starting concentration, 0.5 nM; maximum concentration, 64 nM) were assessed with an IgE-association phase of 3 min at a flow rate of 30 μl/min. The dissociation phase was investigated by injection of HBS-EP for 30 min at a flow rate of 30 μl/min. The sensor chip surface was regenerated by injecting 15 μl of 10 mM Glycine-HCl pH 1.8 at the same. The dissociation constant (KD-Value), on-rate (ka) and off-rate (kd) were calculated with BIAevaluation 4.1 (GE Healthcare Biacore) using a 1:1 interaction model. All measurements were performed on a Biacore 2000 device at 25° C.
(SPR reads the build-up and loss of mass on a sensor chip optically.)

Experiment [2] addresses T1, human IgE (NBS-00911-0-100). Nature of the experiment: capture ELISA: adsorber on a capturing antibody, 1 µg/ml IgE, anti IgE-HRPO. As for the experimental part:
Protease resistant A43-FceRIa adsorber has similar affinity, avidity and specificity to IgE when compared to wild type FceRIa or prior art single chain antibody scFv12 (WO 2012/140214 A1) when comparing IgE binding by capture ELISA. Plates were coated with capturing antibody, after blocking HEK cell-purified recombinant protein derived from ScFv12 and FceRIa transfected cells, coated protein was incubated for 1 hour at RT. 1 μg/ml IgE (NBS-00911-0-100), trapped for 1 h/RT and detected for IgE binding using 1 μg/ml anti IgE-HRPO mAB (Novus Biologicals NBP1-74934) for 1 hour at RT.
(In general: ELISA stands for enzyme-linked immunosorbent assay.)

T1 sequence (P01854 other isoform, or with tags, fused parts or gaps): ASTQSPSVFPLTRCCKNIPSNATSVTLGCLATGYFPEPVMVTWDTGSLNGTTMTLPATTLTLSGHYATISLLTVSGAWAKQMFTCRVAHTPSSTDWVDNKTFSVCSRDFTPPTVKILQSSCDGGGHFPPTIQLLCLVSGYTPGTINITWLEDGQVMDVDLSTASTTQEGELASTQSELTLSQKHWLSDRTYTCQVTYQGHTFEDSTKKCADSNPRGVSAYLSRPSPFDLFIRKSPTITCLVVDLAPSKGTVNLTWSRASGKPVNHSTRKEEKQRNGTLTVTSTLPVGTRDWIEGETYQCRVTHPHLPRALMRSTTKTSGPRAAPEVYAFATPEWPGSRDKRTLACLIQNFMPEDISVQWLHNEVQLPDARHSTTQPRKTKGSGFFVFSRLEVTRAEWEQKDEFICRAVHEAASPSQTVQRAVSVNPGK

B1: protease resistant A43-FceRIa (K43 to A43 variant of recombinant human FceRIa) (receptor)
chain (part 1 of 2): PDGVLAVPQKPKVSLNPPWNRIFAGENVTLTCNGNNFFEVSSTKWFHNGSLSEETNSSLNIVNAKFEDSGEYKCQHQQVNESEPVYLEVFSDWLLLQASAEVVMEGQPLFLRCHGWRNWDVYKVIYYKDGEALKYWYENHNISITNATVEDSGTYYCTGKVWQLDYESEPLNITVIKAPREKYWLQ
chain (part 2 of 2): HHHHHH
notes: also called A43 mutant; protease-resistant variant A43-FceRIa; not shown: spacer
Consider B1, for which, in experiment [1], the Kd was found to be 379 pM, the koff is 0.000492 s⁻¹ and the kon was 1.3e+06 M⁻¹ s⁻¹. In addition, the EC50 in experiment [2] stood at 0.0344 µg/mL.

B2: recombinant wild type FceRIa (extracellular region of the alpha chain of the human high-affinity IgE receptor, spacer, 6His) (receptor)
chain: PDGVLAVPQKPKVSLNPPWNRIFKGENVTLTCNGNNFFEVSSTKWFHNGSLSEETNSSLNIVNAKFEDSGEYKCQHQQVNESEPVYLEVFSDWLLLQASAEVVMEGQPLFLRCHGWRNWDVYKVIYYKDGEALKYWYENHNISITNATVEDSGTYYCTGKVWQLDYESEPLNITVIKAPREKYWLQHHHHHH
notes: Peptide K (VPQKPK...) begins at V26, so the secreted protein may begin at residue 26; also called WT-FceRIa; wt-FceRIa; not shown: spacer between FceRIa and 6His
Consider B2, for which, in experiment [1], the Kd was determined as 473 pM, the koff came to 0.00052 s⁻¹ and the kon was found to be 1.1e+06 M⁻¹ s⁻¹. Further, the response in experiment [2] was half-maximal at 0.0245 µg/mL (EC50).
